These are literature values, as cited in paper PMC3379994, “Comprehensive Analysis of Interactions between the Src-Associated Protein in Mitosis of 68 kDa and the Human Src-Homology 3 Proteome” (PLoS ONE, 2012).

In general, Kd refers to a measure of binding affinity in units of concentration.

The target in the data set is Nef (Human immunodeficiency virus 1) (UniProt P04324). As to the kind of experiment: SPR. Background: In SPR one partner is held on a chip, and binding of the other changes the refractive index at the surface.

Sequence of Hck SH3 (P08631 75-141): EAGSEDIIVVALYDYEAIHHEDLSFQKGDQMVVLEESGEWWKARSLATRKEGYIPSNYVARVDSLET

On to Hck SH3 (from UniProt P08631), for which the Kd was 250 nM.
